Reference: patent US20240116985A1 (published 2024)
Starred links: 1 amine or outer side, 2 acyl side, 3 side chain; linkers in the order of their positions; H or OH if unused. Positions of bridges follow the written chain, without caps; N, C: chain ends. Non-standard residues stand in square brackets, D forms with d. Primed or numbered codes have the meaning given here. PyrS2(3) = (S)-3-amino-1-((pent-4-en-1-yloxy)carbonyl)pyrrolidine-3-carboxylic acid, stapling residue, C=CCCCOC(=O)N1CC[C@@](N[*:1])(C(=O)[*:2])C1; PyrS2″ = (S)-3-amino-1-((pent-4-en-1-yloxy)carbonyl)pyrrolidine-3-carboxylic acid (stapling residue), C=CCCCOC(=O)N1CC[C@@](N[*:1])(C(=O)[*:2])C1; SeN″ = (S)-5-(((allyloxy)carbonyl)(methyl)amino)-2-amino-2-methylpentanoic acid (stapling residue), C=CCOC(=O)N(C)CCC[C@](C)(N[*:1])C(=O)[*:2]; B5(16) = 2-amino-2-(pent-4-en-1-yl)hept-6-enoic acid = 2,2-bis(4-pentenyl)glycine (stitching residue), C=CCCCC(CCCC=C)(N[*:1])C(=O)[*:2]; B5(4) = 2,2-bis(4-pentenyl)glycine = 2-amino-2-(pent-4-en-1-yl)hept-6-enoic acid (stitching residue), C=CCCCC(CCCC=C)(N[*:1])C(=O)[*:2]; B5(20) = 2-amino-2-(pent-4-en-1-yl)hept-6-enoic acid = bis(4-pentenyl)glycine, stitching residue, C=CCCCC(CCCC=C)(N[*:1])C(=O)[*:2]; B5(21) = 2-amino-2-(pent-4-en-1-yl)hept-6-enoic acid, bis(4-pentenyl)glycine (stitching residue), C=CCCCC(CCCC=C)(N[*:1])C(=O)[*:2]; Phe(3,5-F2) = N[C@@H](Cc1cc(F)cc(F)c1)C(=O)O; Phe(2-Cl) = N[C@@H](Cc1ccccc1Cl)C(=O)O; Bta = N[C@@H](Cc1csc2ccccc12)C(=O)O; αAllylPro = C=CC[C@@]1(C(=O)O)CCCN1; tBuAla = CC(C)(C)C[C@H](N)C(=O)O; Cha = N[C@@H](CC1CCCCC1)C(=O)O; S8 = C=CCCCCCC[C@](C)(N)C(=O)O; Thr(ol) = C[C@@H](O)[C@H](N)CO; R5 = C=CCCC[C@@](C)(N)C(=O)O

T1: B-cat-Halo (UniProt P35222 1-781)
T1 sequence (looked up): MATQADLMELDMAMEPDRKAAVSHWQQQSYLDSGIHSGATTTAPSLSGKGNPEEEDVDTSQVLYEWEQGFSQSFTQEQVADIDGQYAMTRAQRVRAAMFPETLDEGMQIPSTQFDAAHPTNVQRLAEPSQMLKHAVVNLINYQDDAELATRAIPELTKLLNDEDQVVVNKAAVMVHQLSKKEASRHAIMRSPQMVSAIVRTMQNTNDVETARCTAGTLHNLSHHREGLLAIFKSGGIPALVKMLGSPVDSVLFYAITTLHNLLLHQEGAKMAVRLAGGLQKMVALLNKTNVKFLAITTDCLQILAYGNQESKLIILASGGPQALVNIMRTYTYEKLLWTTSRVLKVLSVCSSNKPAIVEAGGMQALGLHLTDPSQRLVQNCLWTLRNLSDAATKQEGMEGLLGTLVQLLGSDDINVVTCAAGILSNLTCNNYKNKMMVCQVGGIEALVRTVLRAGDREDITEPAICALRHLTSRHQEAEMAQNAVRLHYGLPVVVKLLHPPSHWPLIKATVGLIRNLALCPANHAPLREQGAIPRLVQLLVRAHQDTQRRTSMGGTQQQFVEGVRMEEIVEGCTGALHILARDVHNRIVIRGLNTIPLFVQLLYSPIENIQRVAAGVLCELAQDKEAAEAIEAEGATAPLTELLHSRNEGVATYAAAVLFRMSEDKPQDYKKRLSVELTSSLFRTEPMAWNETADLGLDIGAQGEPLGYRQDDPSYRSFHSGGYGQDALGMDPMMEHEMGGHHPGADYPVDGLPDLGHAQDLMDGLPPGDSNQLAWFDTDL

T2: full-length beta-Catenin (Uniprot ID P35222) (Homo sapiens (Human), UniProt P35222 1-781)
T2 construct: also called bCat
T2 sequence: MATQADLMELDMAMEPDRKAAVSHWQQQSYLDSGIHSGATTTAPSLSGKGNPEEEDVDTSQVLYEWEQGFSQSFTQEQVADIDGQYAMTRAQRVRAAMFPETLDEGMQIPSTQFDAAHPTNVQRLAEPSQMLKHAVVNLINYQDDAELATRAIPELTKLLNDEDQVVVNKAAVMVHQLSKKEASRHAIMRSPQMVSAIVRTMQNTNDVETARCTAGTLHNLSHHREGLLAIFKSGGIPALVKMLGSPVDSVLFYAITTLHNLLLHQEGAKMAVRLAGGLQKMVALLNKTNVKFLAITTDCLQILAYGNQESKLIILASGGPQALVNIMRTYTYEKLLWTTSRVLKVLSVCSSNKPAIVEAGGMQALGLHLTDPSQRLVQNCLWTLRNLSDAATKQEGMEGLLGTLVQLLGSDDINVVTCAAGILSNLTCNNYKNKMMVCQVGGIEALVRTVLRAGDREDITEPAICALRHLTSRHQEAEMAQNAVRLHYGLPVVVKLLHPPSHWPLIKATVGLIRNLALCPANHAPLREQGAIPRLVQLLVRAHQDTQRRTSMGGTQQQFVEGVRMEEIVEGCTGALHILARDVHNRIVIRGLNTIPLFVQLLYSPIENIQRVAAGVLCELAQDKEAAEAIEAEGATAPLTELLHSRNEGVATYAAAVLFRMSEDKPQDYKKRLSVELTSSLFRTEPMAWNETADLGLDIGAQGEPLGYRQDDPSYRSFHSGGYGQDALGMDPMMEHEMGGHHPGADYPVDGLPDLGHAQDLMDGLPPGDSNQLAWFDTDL

T3: full-length beta-Catenin (Uniprot ID P35222) (Homo sapiens (Human), UniProt P35222 2-781)
T3 construct: Used full-length in both the FP and the AlphaScreen assay; also called B-Catenin; bCat
T3 sequence: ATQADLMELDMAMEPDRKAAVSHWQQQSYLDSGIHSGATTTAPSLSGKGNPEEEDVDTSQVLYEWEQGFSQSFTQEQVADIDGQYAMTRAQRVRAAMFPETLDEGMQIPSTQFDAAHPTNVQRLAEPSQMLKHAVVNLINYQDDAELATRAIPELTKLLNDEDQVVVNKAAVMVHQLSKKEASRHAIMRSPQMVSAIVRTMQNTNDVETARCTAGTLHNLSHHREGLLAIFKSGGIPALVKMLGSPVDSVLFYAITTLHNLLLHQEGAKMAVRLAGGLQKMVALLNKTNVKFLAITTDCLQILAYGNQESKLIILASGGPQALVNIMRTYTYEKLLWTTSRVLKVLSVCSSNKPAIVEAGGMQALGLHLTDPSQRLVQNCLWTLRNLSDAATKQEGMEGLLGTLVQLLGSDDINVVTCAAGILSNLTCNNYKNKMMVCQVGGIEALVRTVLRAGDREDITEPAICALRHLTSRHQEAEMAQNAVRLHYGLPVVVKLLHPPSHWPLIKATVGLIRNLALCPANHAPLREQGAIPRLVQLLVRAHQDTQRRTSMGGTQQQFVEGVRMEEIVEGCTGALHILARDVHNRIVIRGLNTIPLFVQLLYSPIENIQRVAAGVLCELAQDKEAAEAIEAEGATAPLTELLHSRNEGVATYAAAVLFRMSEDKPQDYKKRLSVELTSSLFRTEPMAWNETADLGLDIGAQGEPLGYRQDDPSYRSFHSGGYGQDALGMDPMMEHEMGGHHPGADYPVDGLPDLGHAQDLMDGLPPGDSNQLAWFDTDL

T4: beta-Catenin (full-length, Uniprot ID P35222) (Homo sapiens (Human), UniProt P35222 1-781)
T4 construct: also called bCat; B-Catenin
T4 sequence: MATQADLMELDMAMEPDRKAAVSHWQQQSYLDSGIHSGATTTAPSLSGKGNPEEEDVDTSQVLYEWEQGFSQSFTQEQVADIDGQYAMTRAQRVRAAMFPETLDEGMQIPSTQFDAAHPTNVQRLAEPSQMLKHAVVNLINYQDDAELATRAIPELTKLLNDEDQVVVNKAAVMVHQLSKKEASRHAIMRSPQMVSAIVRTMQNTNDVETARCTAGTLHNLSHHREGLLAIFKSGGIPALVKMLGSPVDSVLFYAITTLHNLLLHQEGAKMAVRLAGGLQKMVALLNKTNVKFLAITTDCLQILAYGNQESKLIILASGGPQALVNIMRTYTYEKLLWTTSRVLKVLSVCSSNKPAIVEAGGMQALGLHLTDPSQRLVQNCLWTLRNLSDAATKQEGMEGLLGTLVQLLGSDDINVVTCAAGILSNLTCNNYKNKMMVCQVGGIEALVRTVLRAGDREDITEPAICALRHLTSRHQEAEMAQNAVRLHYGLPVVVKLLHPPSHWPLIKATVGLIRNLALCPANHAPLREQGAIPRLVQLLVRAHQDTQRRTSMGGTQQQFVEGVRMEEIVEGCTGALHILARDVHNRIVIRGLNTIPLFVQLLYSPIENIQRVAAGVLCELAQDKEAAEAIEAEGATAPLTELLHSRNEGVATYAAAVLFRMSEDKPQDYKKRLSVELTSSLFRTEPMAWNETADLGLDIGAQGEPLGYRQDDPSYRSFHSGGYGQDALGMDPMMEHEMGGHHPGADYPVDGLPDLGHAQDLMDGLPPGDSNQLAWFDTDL

B1: I-52 (peptide)
peptide: Ac-[αAllylPro]DA[B5(20)]DDAAFV[S8]FWQ-NH2
modifications: staple 1-4, 4-11
notes: Stapled (stitched) peptide; also called Ac-PL3-Asp-Ala-B5-Asp-Asp-Ala-Ala-Phe-Val-S8-Phe-Trp-Gln-NH2
B2: I-53 (peptide)
peptide: Ac-[αAllylPro]DA[B5(21)]DDAAFV[SeN″]FWQ-NH2
modifications: staple 1-4, 4-11; also: earlier-eluting HPLC isomer, E/Z not given here
notes: Stapled (stitched) peptide; also called Ac-PL3-Asp-Ala-B5-Asp-Asp-Ala-Ala-Phe-Val-SeN-Phe-Trp-Gln-NH2

What was measured:
B-cat-Halo = target: T1, B-cat-Halo; assay: cell-based or functional assay
[1] = target: T2, full-length beta-Catenin (Uniprot ID …); assay: fluorescence polarization competition; full-length beta-catenin; competitor 5FAM-TCF4(10-53) probe
Experimental: (§1) The plate was incubated protected from light for 60 minutes at 20° C. prior to read. Reads were performed on a CLARIOstar plate reader (BMG Labtech) in duplicate, and data were fitted to a 1:1 binding model with hill slope using an in-house script. All provided concentrations are final concentrations.

[2] = target: T3, full-length beta-Catenin (Uniprot ID …); assay: fluorescence polarization competition; full-length beta-catenin, 5FAM-TCF4(10-53) probe
Experimental: as §1

[3] = target: T3, full-length beta-Catenin (Uniprot ID …); assay: AlphaScreen competition; full-length beta-catenin, biotin-TCF4(10-53) probe
Experimental: as §1, with “Equal volume of the titrated peptide was added to the” for “The”, “and” for “was”, “incubated for 15 minutes at 20° C. Then 4 uL of donor and 4 uL acceptor beads at 10 ug/mL were added to the plate, for a 16 uL reaction pool and” for “incubated”

[4] = target: T4, beta-Catenin (full-length, Uniprot ID …); assay: fluorescence polarization competition: peptide titrated against 10 nM full-length beta-catenin + 10 nM 5FAM-labeled TCF4 residues 10-53 probe
Experimental: as §1

Binder	EC50 [1] [nM]	also measured
Ac-[αAllylPro]D[tBuAla][B5(4)]DTAAFT[PyrS2″][Phe(2-Cl)][Bta][Thr(ol)] (staple 1-4, 4-11) [I-1309]		NanoBRET Abs IC50 (uM); B-cat-Halo / TCF4-Luc in HEK293 cells (B-cat-Halo): 28.6 µM
Ac-[αAllylPro]D[Cha][B5(4)]DTAAFT[PyrS2″][Phe(2-Cl)][Bta][Thr(ol)] (staple 1-4, 4-11) [I-1310]		NanoBRET Abs IC50 (uM); B-cat-Halo / TCF4-Luc in HEK293 cells (B-cat-Halo): > 20 µM
Ac-[αAllylPro]D[tBuAla][B5(4)]DDAAFF[PyrS2″][Phe(2-Cl)][Bta][Thr(ol)] (staple 1-4, 4-11) [I-1311]		NanoBRET Abs IC50 (uM); B-cat-Halo / TCF4-Luc in HEK293 cells (B-cat-Halo): 20.6 µM
Ac-[αAllylPro]DF[B5(16)]DDLLFS[PyrS2″][Phe(2-Cl)][Bta]Q-NH2 (staple 1-4, 4-11, stapled peptide) [I-1155]	60	
Ac-[αAllylPro]DF[B5(16)]DDLAFS[PyrS2″][Phe(2-Cl)][Bta]Q-NH2 (staple 1-4, 4-11, stapled peptide) [I-1153]	12	
Ac-[αAllylPro]DF[B5(16)]DDALFS[PyrS2″][Phe(2-Cl)][Bta]Q-NH2 (staple 1-4, 4-11, stapled peptide) [I-1154]	45	
Ac-[αAllylPro]DF[B5(4)]DDLLFT[PyrS2″][Phe(2-Cl)][Bta]S-NH2 (staple 1-4, 4-11, stapled peptide) [I-1158]	168	
Ac-[αAllylPro]DF[B5(16)]DDLAFT[PyrS2″][Phe(2-Cl)][Bta]S-NH2 (staple 1-4, 4-11, stapled peptide) [I-1156]	14	
Ac-[αAllylPro]DF[B5(4)]DDALFT[PyrS2″][Phe(2-Cl)][Bta]S-NH2 (staple 1-4, 4-11, stapled peptide) [I-1157]	36	
Ac-PD[tBuAla][R5]DDAAFN[PyrS2(3)][Phe(2-Cl)][Bta]Q-NH2 (staple 4-11, stapled peptide (single staple)) [I-1183]	409	
Ac-PD[Cha][R5]DDAAFT[PyrS2(3)][Phe(2-Cl)][Bta]S-NH2 (staple 4-11, stapled peptide (single staple)) [I-1184]	176	
B1		EC50 [2]: 3200 nM; EC50 [3]: 158 nM
B2		EC50 [2]: 5000 nM; EC50 [3]: 1140 nM
Ac-[αAllylPro]DA[B5(4)]DEAA[Phe(3,5-F2)]V[S8]FWQ-NH2 (staple 1-4, 4-11, Stapled (stitched) peptide) [I-219: Ac-PL3-Asp-Ala-B5-Asp-Glu-Ala-Ala-35FF-Val-S8-Phe-Trp-Gln-NH2]		IC50 [4]: 2860 nM
